Test results published in US20220153864A1.

Legend:
[1] = target: 32 different targets including GPC3, GPC5, and other TNF receptor proteins; test: off-target ELISA on 32 coated targets, binder at 100 nM, signals normalized to control antibody SEQ ID NOs: 106 and 107 and summed
[2] = target: 32 different targets including GPC3, GPC5, and other TNF receptor proteins; test: off-target ELISA on 32 coated targets, binder at 10 nM, signals normalized to control antibody SEQ ID NOs: 106 and 107 and summed
[3] = target: 32 different targets including GPC3, GPC5, and other TNF receptor proteins; test: off-target ELISA on 32 coated targets, sum of the ratios at 100 nM and 10 nM

B1: GPC3 antibody as included in the fusion protein (SEQ ID NOs: 81 and 82) (antibody, human IgG4 S228P, kappa, F234A L235A, V domains shown)
VH: QVQLVQSGAEVKKPGASVKVSCKASGYTFTDYEMHWVRQAPGQGLEWMGALDPKTGDTAYSQKFKGRVTLTADKSTSTAYMELSSLTSEDTAVYYCTRFYSYTYWGQGTLVTLVS
VL: DVVMTQSPLSLPVTPGEPASISCRSSQSLVHSNRNTYLHWYLQKPGQSPQLLIYKVSNRFSGVPDRFSGSGSGTDFTLKISRVEAEDVGVYYCSQNTHVPPTFGQGTKLEIKR
Binder B1 has a cumulative binding ratio [1] of 81, a cumulative binding ratio [2] of 48 and a sum of cumulative binding ratios [3] of 129.
